This is an account of results in patent US10286078B2, “Modified therapeutic agents and compositions thereof” (THE CALIFORNIA INSTITUTE FOR BIOMEDICAL RESEARCH, priority 2013, dated 2019).

One data set deals with T1, human Nav1.7 (Homo sapiens, UniProt Q15858).
T1 construct: host or cells: HEK293
The data set is described as follows: NaV 1.7 current measurement on IonFlux HT. To be noted: HEK293 cells overexpressing alpha and beta-1 subunits of human Nav1.7. The class given is cell-based. As for the experimental part:
Toxin-550 peptides were assayed on the IonFlux HT using standard running conditions for measurement of NaV 1.7 current. Briefly, HEK293 cells overexpressing the alpha and beta-1 subunits of human Nav1.7 (PrecisION, Millipore) were trypsinized, brought up in serum-free media and allowed to shake at room temperature for 30 minutes. Compounds were diluted into standard extracellular Ringer's solution (ECS) at desired concentration. Cells were washed once with ECS and then brought up in ECS at a concentration of 4 million cells/mL. IonFlux HT plate was set up according to standard protocols.
NaV 1.7 current was measured on the IonFlux according to the following voltage step protocol:
1. The cells were held at −90 mV with a period of 10 seconds.
2. The cells were stepped from −90 mV to −120 mV for 100 ms. • a. then to −10 mV for 30 ms and • b. then back to −90 mV for 30 ms.
Baseline current was allowed to stabilize for 5 minutes, then a control baseline (ECS only) was established. Compound was applied for 20 minutes, and then a positive control (peptide NaV1.7 blocker) was applied.
Leak subtraction was then performed on the data and the resulting currents are analyzed as follows: • 1. […] For a given time (e.g. 10 minutes post-compound addition), percent block was calculated as I/Imax.

A short description of data set [1]: In vivo pharmacokinetic (PK) study for half-life extension. To be noted: mouse, plasma, mice. As for the experimental part: Lipid conjugated relaxin or other therapeutic agents are dosed in mice using sc, po, iv dosing. Plasma levels of TA are determined by ms, lgr7, glp1r and/or gcgr activation at different time points (e.g., i.v. PK 5 min, 0.5 h, 1 h, 2 h 4 h, 8 h, 24 h, 48 h, 96 h & 144 h and s.c. PK. 15 min, 0.5 h, 1 h, 2 h, 4 h, 8 h, 24 h, 48 h, 96 h and 144 h). Select PK data are shown in FIGS. 11, 12, and 15, and Table 2.

The target of the next data set is T2, LGR7 (Homo sapiens, UniProt Q9HBX9).
T2 construct: expressed in transfected cells
T2 sequence (Q9HBX9 1-757): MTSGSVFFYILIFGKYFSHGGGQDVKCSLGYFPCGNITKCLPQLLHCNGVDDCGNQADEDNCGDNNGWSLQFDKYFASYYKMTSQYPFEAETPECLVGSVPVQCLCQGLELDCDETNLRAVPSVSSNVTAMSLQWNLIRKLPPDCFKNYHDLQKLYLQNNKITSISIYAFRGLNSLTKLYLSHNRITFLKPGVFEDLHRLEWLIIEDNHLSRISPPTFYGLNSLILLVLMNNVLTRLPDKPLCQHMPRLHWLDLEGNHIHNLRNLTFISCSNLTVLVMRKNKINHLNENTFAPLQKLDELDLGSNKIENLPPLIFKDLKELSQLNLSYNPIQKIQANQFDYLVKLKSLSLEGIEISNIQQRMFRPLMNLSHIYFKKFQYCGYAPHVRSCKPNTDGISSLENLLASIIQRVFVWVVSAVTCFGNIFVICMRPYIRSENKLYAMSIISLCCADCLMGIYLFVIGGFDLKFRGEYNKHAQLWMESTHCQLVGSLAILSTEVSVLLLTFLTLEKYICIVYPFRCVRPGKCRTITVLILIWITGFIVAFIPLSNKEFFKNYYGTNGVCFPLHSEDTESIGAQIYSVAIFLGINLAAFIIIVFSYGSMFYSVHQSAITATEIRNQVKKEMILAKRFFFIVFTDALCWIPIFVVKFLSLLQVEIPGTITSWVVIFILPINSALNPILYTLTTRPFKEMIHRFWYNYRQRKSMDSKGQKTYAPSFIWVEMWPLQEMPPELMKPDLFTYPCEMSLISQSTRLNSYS
The data set is described as follows: LGR7 CRE-Luc reporter gene assay (relaxin bioactivity). In kind it is cell-based. To be noted: HEK293T cells expressing LGR7 and CRE-Luc; EC50 after non-linear curve fitting. As for the experimental part:
Relaxin 2 signals through leucine-rich repeat-containing GPCRs (i.e. LGR7 (RFXR1)). The bioactivity of wild-type relaxin peptides was determined based on the stimulation of adenylate cyclase activity in HEK293T cells stably expressing recombinant LGR7. Stable LGR7 expressing cells were maintained in Dulbecco's modified Eagle's medium/F-12 media supplemented with […] Zeocin (Invitrogen). A cyclic AMP responsive element driven luciferase (CRE-Luc) reporter line was generated by lentiviral transduction of these LGR7 expressing HEK293T cells with CRE-Luc lentivirus (Qiagen) and selected with puromycine (2 μg/mL) for two weeks. A reporter gene assay was used to detect cAMP levels and LGR7 activation by relaxin.
Assay detail: HEK293T cells expressing LGR7 and CRE-Luc are seeded at a density of 5×10^3 cells per well in 50 μl of Dulbecco's modified Eagle's medium/F-12 medium containing 10% FBS in 384-well solid bottom white plates. Cells are pre-incubated at 37° C. for overnight. Different concentrations of relaxin peptides (from 0.01 nM to 1000 nM) were added in triplicate, incubated for 18 hours and luciferase activity was detected by adding […] of Bright Glo (Promega). Luminescence was recorded on Envision (Perkin Elmer). EC50 is calculated after non-linear curve fitting (see FIG. 3 for relaxin H2 dose response curve).
In general terms: In a reporter assay the amount or activity of a reporter protein is the signal.

[2] abbreviates: iv, i.v., read-out: Half-life (hours) i.v. (converted).
[3] abbreviates: sc, s.c., read-out: Half-life (hours) s.c. (converted).

Read-outs that look alike come from different tables or passages of the source. Where no end group is shown, it is not given here.

One may read the half-life as the time needed for the level to fall by half in the phase considered. The EC50 is the midpoint of the concentration-response curve. Higher therefore signals weaker potency.

T1 sequence (Q15858 whole entry): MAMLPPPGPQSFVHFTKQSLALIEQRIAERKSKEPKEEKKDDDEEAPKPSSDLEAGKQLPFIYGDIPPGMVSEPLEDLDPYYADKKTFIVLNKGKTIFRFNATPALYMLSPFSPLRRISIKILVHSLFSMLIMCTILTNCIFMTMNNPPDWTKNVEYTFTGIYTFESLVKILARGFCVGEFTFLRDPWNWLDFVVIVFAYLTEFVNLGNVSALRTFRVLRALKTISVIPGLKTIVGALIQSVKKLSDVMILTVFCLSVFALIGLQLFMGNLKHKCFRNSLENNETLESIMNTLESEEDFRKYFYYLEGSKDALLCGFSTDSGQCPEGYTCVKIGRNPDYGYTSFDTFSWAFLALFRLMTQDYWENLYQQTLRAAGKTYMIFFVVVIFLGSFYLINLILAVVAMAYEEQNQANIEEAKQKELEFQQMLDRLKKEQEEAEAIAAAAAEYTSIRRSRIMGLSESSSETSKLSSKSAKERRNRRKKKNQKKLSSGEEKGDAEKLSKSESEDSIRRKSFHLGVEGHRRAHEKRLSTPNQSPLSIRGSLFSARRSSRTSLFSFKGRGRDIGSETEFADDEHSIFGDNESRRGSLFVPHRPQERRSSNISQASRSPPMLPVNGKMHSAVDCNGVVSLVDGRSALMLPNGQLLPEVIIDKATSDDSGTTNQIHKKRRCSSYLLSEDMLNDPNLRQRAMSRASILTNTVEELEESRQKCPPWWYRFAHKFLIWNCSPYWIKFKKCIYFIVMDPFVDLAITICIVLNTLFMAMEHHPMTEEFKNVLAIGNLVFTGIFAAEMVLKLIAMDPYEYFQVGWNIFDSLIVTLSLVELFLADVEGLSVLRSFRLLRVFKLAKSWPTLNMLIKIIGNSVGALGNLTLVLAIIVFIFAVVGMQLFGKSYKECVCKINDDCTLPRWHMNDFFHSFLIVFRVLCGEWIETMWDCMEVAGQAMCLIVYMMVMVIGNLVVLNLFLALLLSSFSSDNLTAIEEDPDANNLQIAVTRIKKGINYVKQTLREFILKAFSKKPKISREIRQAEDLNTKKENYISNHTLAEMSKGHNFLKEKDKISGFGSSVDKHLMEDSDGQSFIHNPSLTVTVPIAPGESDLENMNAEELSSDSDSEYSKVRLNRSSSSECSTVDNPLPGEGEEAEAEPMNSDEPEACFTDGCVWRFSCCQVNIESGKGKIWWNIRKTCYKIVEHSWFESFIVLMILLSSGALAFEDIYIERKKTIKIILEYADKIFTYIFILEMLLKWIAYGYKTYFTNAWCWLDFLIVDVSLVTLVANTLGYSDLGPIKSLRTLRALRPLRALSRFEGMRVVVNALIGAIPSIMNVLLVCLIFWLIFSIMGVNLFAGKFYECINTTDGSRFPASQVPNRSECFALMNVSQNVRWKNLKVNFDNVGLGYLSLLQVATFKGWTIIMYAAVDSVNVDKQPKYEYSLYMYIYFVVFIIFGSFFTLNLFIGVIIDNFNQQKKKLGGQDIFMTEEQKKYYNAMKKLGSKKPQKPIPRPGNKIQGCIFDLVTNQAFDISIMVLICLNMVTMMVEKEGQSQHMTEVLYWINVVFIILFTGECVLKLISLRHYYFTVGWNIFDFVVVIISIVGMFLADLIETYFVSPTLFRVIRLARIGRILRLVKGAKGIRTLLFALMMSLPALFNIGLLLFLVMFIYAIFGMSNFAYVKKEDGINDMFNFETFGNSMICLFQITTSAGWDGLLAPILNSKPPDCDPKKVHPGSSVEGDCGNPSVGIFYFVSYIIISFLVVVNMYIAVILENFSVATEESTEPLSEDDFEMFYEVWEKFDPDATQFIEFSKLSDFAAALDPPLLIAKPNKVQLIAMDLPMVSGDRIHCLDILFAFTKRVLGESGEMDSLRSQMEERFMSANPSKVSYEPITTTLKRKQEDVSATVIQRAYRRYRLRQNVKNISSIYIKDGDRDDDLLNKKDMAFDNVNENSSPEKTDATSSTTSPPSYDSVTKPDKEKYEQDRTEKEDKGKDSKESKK
T1 sequence (Q07699 19-218, further chain): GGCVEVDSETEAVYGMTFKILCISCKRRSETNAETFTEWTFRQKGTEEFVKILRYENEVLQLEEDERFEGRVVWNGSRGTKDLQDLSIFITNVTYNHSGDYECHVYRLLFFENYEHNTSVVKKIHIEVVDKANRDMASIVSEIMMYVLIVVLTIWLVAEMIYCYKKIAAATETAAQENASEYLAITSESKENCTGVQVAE

Turning to “550-4-GSCGG-FA1: 550-4-GSCGG (SEQ ID NO: 28) with lipid FA1 (GSCGGECIGMFKSCDPENDKCCKGRTCSRKHRWCKYKL; cysteine pairing not given here; also: lipid FA1)”, in the data set with human Nav1.7, the “Activity: % block at 100 nM” value is 85% block.

In the case of `CCCCCCCCCCCCCC(=O)NCCOCCOCCNC(=O)CSC[C@H](NC(=O)[C@H](Cc1c[nH]c2ccccc12)NC(=O)[C@@H](NC(=O)[C@H](CO)NC(=O)[C@H](CCSC)NC(=O)CNC(=O)[C@@H]1CSSC[C@@H](C(=O)O)NC(=O)[C@H](Cc2ccccc2)NC(=O)[C@H](CCCNC(=N)N)NC(=O)[C@H](C)NC(=O)[C@H](CC(C)C)NC(=O)[C@H](CO)NC(=O)[C@H](CCCNC(=N)N)NC(=O)[C@H](CCCCN)NC(=O)[C@H]([C@@H](C)O)NC(=O)[C@@H]2CSSC[C@H](NC(=O)[C@H](CCCCN)NC(=O)[C@H](CC(N)=O)NC(=O)[C@H](C)NC(=O)[C@H](CC(C)C)NC(=O)[C@H](C)NC(=O)[C@H](CO)NC(=O)[C@H](Cc3ccc(O)cc3)NC(=O)[C@H](CC(C)C)NC(=O)[C@@H](N)CCC(N)=O)C(=O)N[C@@H](CSSC[C@H](NC(=O)[C@H](CC(C)C)NC(=O)[C@H](CCCCN)NC(=O)[C@@H](NC(=O)[C@@H](NC(=O)[C@H](CCC(=O)O)NC(=O)[C@H](CCC(=O)O)NC(=O)[C@H](CCSC)NC(=O)[C@H](Cc3c[nH]c4ccccc34)NC(=O)[C@H](CO)NC(=O)[C@H](C)N)C(C)C)[C@@H](C)CC)C(=O)NCC(=O)N[C@@H](CCCNC(=N)N)C(=O)N[C@@H](CCC(=O)O)C(=O)N[C@@H](CC(C)C)C(=O)N[C@@H](C(C)C)C(=O)N[C@@H](CCCNC(=N)N)C(=O)N[C@@H](C)C(=O)N[C@@H](CCC(N)=O)C(=O)N[C@@H]([C@@H](C)CC)C(=O)N[C@@H](C)C(=O)N[C@@H]([C@@H](C)CC)C(=O)N1)C(=O)N[C@@H](Cc1c[nH]cn1)C(=O)N[C@@H](C(C)C)C(=O)NCC(=O)N2)[C@@H](C)O)C(=O)O` [Relaxin-B-D1AS29C-FA1], the half-life was 0.5 h in data set [1] (setting [2]) and 1.2 h in data set [1] (setting [3]).

`CCCCCCCCCCCCCC(=O)NCCOCCOCCNC(=O)CSC[C@H](NC(=O)[C@H](Cc1c[nH]c2ccccc12)NC(=O)[C@@H](NC(=O)[C@H](CO)NC(=O)[C@H](CCSC)NC(=O)CNC(=O)[C@@H]1CSSC[C@@H](C(=O)O)NC(=O)[C@H](Cc2ccccc2)NC(=O)[C@H](CCCNC(=N)N)NC(=O)[C@H](C)NC(=O)[C@H](CC(C)C)NC(=O)[C@H](CO)NC(=O)[C@H](CCCNC(=N)N)NC(=O)[C@H](CCCCN)NC(=O)[C@H]([C@@H](C)O)NC(=O)[C@@H]2CSSC[C@H](NC(=O)[C@H](CCCCN)NC(=O)[C@H](CC(N)=O)NC(=O)[C@H](C)NC(=O)[C@H](CC(C)C)NC(=O)[C@H](C)NC(=O)[C@H](CO)NC(=O)[C@H](Cc3ccc(O)cc3)NC(=O)[C@H](CC(C)C)NC(=O)[C@@H](N)CCC(N)=O)C(=O)N[C@@H](CSSC[C@H](NC(=O)[C@H](CC(C)C)NC(=O)[C@H](CCCCN)NC(=O)[C@@H](NC(=O)[C@@H](NC(=O)[C@H](CCC(=O)O)NC(=O)[C@H](CCC(=O)O)NC(=O)[C@H](CCSC)NC(=O)[C@H](Cc3c[nH]c4ccccc34)NC(=O)[C@H](CO)NC(=O)[C@H](CC(=O)O)NC(=O)CNC(=O)CNC(=O)[C@H](CO)NC(=O)CNC(=O)[C@H](CCC(N)=O)NC(=O)[C@H](Cc3ccccc3)NC(=O)[C@H](Cc3ccc(O)cc3)NC(=O)[C@H](CC(C)C)NC(=O)[C@H](CC(N)=O)NC(=O)[C@H](CCC(=O)O)NC(=O)[C@H](Cc3c[nH]cn3)NC(=O)[C@H](Cc3c[nH]cn3)NC(=O)[C@H](Cc3c[nH]cn3)NC(=O)[C@H](Cc3c[nH]cn3)NC(=O)[C@H](Cc3c[nH]cn3)NC(=O)[C@H](Cc3c[nH]cn3)NC(=O)[C@H](Cc3c[nH]cn3)NC(=O)[C@@H](N)Cc3c[nH]cn3)C(C)C)[C@@H](C)CC)C(=O)NCC(=O)N[C@@H](CCCNC(=N)N)C(=O)N[C@@H](CCC(=O)O)C(=O)N[C@@H](CC(C)C)C(=O)N[C@@H](C(C)C)C(=O)N[C@@H](CCCNC(=N)N)C(=O)N[C@@H](C)C(=O)N[C@@H](CCC(N)=O)C(=O)N[C@@H]([C@@H](C)CC)C(=O)N[C@@H](C)C(=O)N[C@@H]([C@@H](C)CC)C(=O)N1)C(=O)N[C@@H](Cc1c[nH]cn1)C(=O)N[C@@H](C(C)C)C(=O)NCC(=O)N2)[C@@H](C)O)C(=O)O` [Tev-Relaxin-B-S29C-FA1] had an EC50 on LGR7 of 1 nM. That is a single-digit nanomolar value.

For the molecule “550-: Toxin-550 peptide, probably SEQ ID NO: 30 (ECIGMFKSCDPENDKCCKGRTCSRKHRWCKYKL) [Entry 550-]”, the “Activity: % block at 100 nM” value with human Nav1.7 is reported as 87% block.

Consider `CC[C@H](C)[C@@H]1NC(=O)[C@H](C)NC(=O)[C@H]([C@@H](C)CC)NC(=O)[C@H](CCC(N)=O)NC(=O)[C@H](C)NC(=O)[C@H](CCCNC(=N)N)NC(=O)[C@H](C(C)C)NC(=O)[C@H](CC(C)C)NC(=O)[C@H](CCC(=O)O)NC(=O)[C@H](CCCNC(=N)N)NC(=O)CNC(=O)[C@@H](NC(=O)[C@H](CC(C)C)NC(=O)[C@H](CCCCN)NC(=O)[C@@H](NC(=O)[C@@H](NC(=O)[C@H](CCC(=O)O)NC(=O)[C@H](CCC(=O)O)NC(=O)[C@H](CCSC)NC(=O)[C@H](Cc2c[nH]c3ccccc23)NC(=O)[C@H](CO)NC(=O)[C@H](C)N)C(C)C)[C@@H](C)CC)CSSC[C@@H]2NC(=O)[C@@H](NC(=O)[C@H](CCCCN)NC(=O)[C@H](CC(N)=O)NC(=O)[C@H](C)NC(=O)[C@H](CC(C)C)NC(=O)[C@H](C)NC(=O)[C@H](CO)NC(=O)[C@H](Cc3ccc(O)cc3)NC(=O)[C@H](CC(C)C)NC(=O)[C@@H](N)CSCC(=O)NCCOCCOCCC(=O)NCCOCCOCCC(=O)NCCCC[C@H](NC(=O)CCCCCCCCCCCCCCCCC(=O)O)C(=O)O)CSSC[C@H](NC(=O)CNC(=O)[C@H](C(C)C)NC(=O)[C@H](Cc3c[nH]cn3)NC2=O)C(=O)N[C@@H]([C@@H](C)O)C(=O)N[C@@H](CCCCN)C(=O)N[C@@H](CCCNC(=N)N)C(=O)N[C@@H](CO)C(=O)N[C@@H](CC(C)C)C(=O)N[C@@H](C)C(=O)N[C@@H](CCCNC(=N)N)C(=O)N[C@@H](Cc2ccccc2)C(=O)N[C@H](C(=O)O)CSSC[C@@H](C(=O)NCC(=O)N[C@@H](CCSC)C(=O)N[C@@H](CO)C(=O)N[C@H](C(=O)N[C@@H](Cc2c[nH]c3ccccc23)C(=O)N[C@@H](CO)C(=O)O)[C@@H](C)O)NC1=O` [Relaxin-B-D1A, A-Q1C-FA2], for which the half-life in data set [1] (setting [2]) was 3.5 h; in data set [1] (setting [3]) it was 7.8 h.
